Measured values reported in the supplement of paper PMC9112550, “Optimization of the antimicrobial peptide Bac7 by deep mutational scanning” (BMC Biology, 2022).

Each sequence was assayed on Escherichia coli TOP10 (assay: shrunken log2 fold change of peptide-encoding DNA abundance (4.5 h post-induction vs induction); higher = less antimicrobial activity (less host growth inhibition)). Settings: time post-induction: 4.5 h; library: site-saturation at positions 5, 18, 19, 20.
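Also: peptides expressed intracellularly from a pBAD plasmid library in pooled LB shake-flask culture, induced with 0.3% L-arabinose, DNA abundance read by NGS, three biological replicates, DESeq2 with apeglm shrinkage.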

| Sequence | shrunken log2 fold change |
| --- | --- |
| RRIRARPPRLPRPRPRPKCPPRP | -0.0505 |
| RRIRHRPPRLPRPRPRPGAYPRP | -0.266 |
| RRIRTRPPRLPRPRPRPQFHPRP | -0.541 |
| RRIRSRPPRLPRPRPRPSWPPRP | -0.135 |
| RRIRVRPPRLPRPRPRPFEQPRP | 0.162 |
| RRIRIRPPRLPRPRPRPIWVPRP | -0.145 |
| RRIRGRPPRLPRPRPRPGTSPRP | 0.278 |
| RRIRNRPPRLPRPRPRPFHHPRP | -0.27 |
| RRIRYRPPRLPRPRPRPQSNPRP | -0.07 |
| RRIRYRPPRLPRPRPRPGATPRP | 0.128 |
| RRIRERPPRLPRPRPRPMSFPRP | -0.314 |
| RRIRKRPPRLPRPRPRPGIDPRP | 0.792 |
| RRIRGRPPRLPRPRPRPPFMPRP | 0.557 |
| RRIRERPPRLPRPRPRPEAEPRP | 0.315 |
| RRIRGRPPRLPRPRPRPEWSPRP | 0.644 |
| RRIRIRPPRLPRPRPRPVNNPRP | -0.272 |
| RRIRLRPPRLPRPRPRPHGRPRP | 0.114 |
| RRIRGRPPRLPRPRPRPRGPPRP | 1.66 |
| RRIRVRPPRLPRPRPRPNDWPRP | -0.208 |
| RRIRARPPRLPRPRPRPNKTPRP | -0.105 |
| RRIRERPPRLPRPRPRPARPPRP | 0.626 |
| RRIRARPPRLPRPRPRPEFRPRP | 0.327 |
| RRIRRRPPRLPRPRPRPMYKPRP | -0.0524 |
| RRIRPRPPRLPRPRPRPANVPRP | -0.122 |
| RRIRYRPPRLPRPRPRPRNTPRP | -0.503 |

| Sequence | shrunken log2 fold change |
| --- | --- |
| RRIRFRPPRLPRPRPRPNWQPRP | 0.0965 |
| RRIRHRPPRLPRPRPRPSITPRP | -0.569 |
| RRIRPRPPRLPRPRPRPDKLPRP | 0.038 |
| RRIRERPPRLPRPRPRPIEVPRP | -0.00196 |
| RRIRTRPPRLPRPRPRPHGRPRP | 0.0169 |
| RRIRQRPPRLPRPRPRPDPGPRP | -0.00151 |
| RRIRFRPPRLPRPRPRPNKHPRP | -0.348 |
| RRIRWRPPRLPRPRPRPQWKPRP | -0.17 |
| RRIRWRPPRLPRPRPRPHIYPRP | -0.358 |
| RRIRVRPPRLPRPRPRPWGIPRP | -0.265 |
| RRIRQRPPRLPRPRPRPRNGPRP | -0.0342 |
| RRIRTRPPRLPRPRPRPFCEPRP | -0.0463 |
| RRIRIRPPRLPRPRPRPFCWPRP | -0.0029 |
| RRIRMRPPRLPRPRPRPVCKPRP | 0.222 |
| RRIRLRPPRLPRPRPRPTMHPRP | 0.0766 |
| RRIRTRPPRLPRPRPRPFTAPRP | -0.473 |
| RRIRRRPPRLPRPRPRPQFGPRP | -0.00169 |
| RRIRWRPPRLPRPRPRPRRQPRP | -0.0653 |
| RRIRYRPPRLPRPRPRPPTRPRP | 0.277 |
| RRIRDRPPRLPRPRPRPTWFPRP | 0.295 |
| RRIRYRPPRLPRPRPRPRKLPRP | -0.14 |
| RRIRTRPPRLPRPRPRPVHRPRP | -0.0993 |
| RRIRPRPPRLPRPRPRPLIHPRP | -0.472 |
| RRIRPRPPRLPRPRPRPQYSPRP | -0.0482 |
| RRIRHRPPRLPRPRPRPYEGPRP | -0.0203 |

| Sequence | shrunken log2 fold change |
| --- | --- |
| RRIRNRPPRLPRPRPRPKSFPRP | -0.00133 |
| RRIRMRPPRLPRPRPRPDIFPRP | 0.118 |
| RRIRLRPPRLPRPRPRPPRYPRP | 0.178 |
| RRIRHRPPRLPRPRPRPFIHPRP | -0.1 |
| RRIRQRPPRLPRPRPRPSVMPRP | -0.283 |
| RRIRFRPPRLPRPRPRPWSVPRP | -0.0111 |
| RRIRYRPPRLPRPRPRPLCLPRP | -0.341 |
| RRIRNRPPRLPRPRPRPEPNPRP | 0.0829 |
| RRIRARPPRLPRPRPRPSTIPRP | -0.273 |
| RRIRGRPPRLPRPRPRPNYYPRP | -0.254 |
| RRIRHRPPRLPRPRPRPCRAPRP | 0.0188 |
| RRIRDRPPRLPRPRPRPWDVPRP | -0.00145 |
| RRIRARPPRLPRPRPRPCDVPRP | 0.212 |
| RRIRSRPPRLPRPRPRPRQPPRP | 0.268 |
| RRIRDRPPRLPRPRPRPLDGPRP | 0.0131 |
| RRIRARPPRLPRPRPRPASKPRP | 0.0747 |
| RRIRNRPPRLPRPRPRPCIDPRP | 0.027 |
| RRIRWRPPRLPRPRPRPYGFPRP | -0.00325 |
| RRIRGRPPRLPRPRPRPHGWPRP | 0.161 |
| RRIRNRPPRLPRPRPRPAANPRP | 0.487 |
| RRIRDRPPRLPRPRPRPGPEPRP | 0.544 |
| RRIRMRPPRLPRPRPRPKKDPRP | 0.942 |
| RRIRCRPPRLPRPRPRPLLFPRP | -0.277 |
| RRIRNRPPRLPRPRPRPANPPRP | 0.0813 |
| RRIRARPPRLPRPRPRPRRAPRP | 0.831 |

| Sequence | shrunken log2 fold change |
| --- | --- |
| RRIRGRPPRLPRPRPRPQDLPRP | -0.00287 |
| RRIRYRPPRLPRPRPRPKCCPRP | 0.013 |
| RRIRSRPPRLPRPRPRPPTTPRP | 0.391 |
| RRIRMRPPRLPRPRPRPDDDPRP | -0.00152 |
| RRIRYRPPRLPRPRPRPTRIPRP | -0.0491 |
| RRIRLRPPRLPRPRPRPFENPRP | -0.388 |
| RRIRRRPPRLPRPRPRPLKDPRP | -0.152 |
| RRIRRRPPRLPRPRPRPLVYPRP | -0.325 |
| RRIRRRPPRLPRPRPRPPFRPRP | 0.631 |
| RRIRTRPPRLPRPRPRPQCIPRP | -0.247 |
| RRIRCRPPRLPRPRPRPNTDPRP | -0.27 |
| RRIRNRPPRLPRPRPRPWVSPRP | 0.069 |
| RRIRSRPPRLPRPRPRPLARPRP | 0.0314 |
| RRIRERPPRLPRPRPRPCQEPRP | -0.181 |
| RRIRHRPPRLPRPRPRPEYCPRP | -0.201 |
| RRIRYRPPRLPRPRPRPSETPRP | -0.523 |
| RRIRLRPPRLPRPRPRPPRSPRP | 0.422 |
| RRIRNRPPRLPRPRPRPGRFPRP | 0.327 |
| RRIRCRPPRLPRPRPRPVANPRP | 0.0866 |
| RRIRDRPPRLPRPRPRPHRWPRP | 0.00819 |
| RRIRFRPPRLPRPRPRPVNVPRP | -0.404 |
| RRIRLRPPRLPRPRPRPGHEPRP | -0.0844 |
| RRIRWRPPRLPRPRPRPFPLPRP | -0.297 |
| RRIRERPPRLPRPRPRPCEEPRP | -0.125 |
| RRIRIRPPRLPRPRPRPTELPRP | -0.0944 |

| Sequence | shrunken log2 fold change |
| --- | --- |
| RRIRPRPPRLPRPRPRPPAPPRP | 0.629 |
| RRIRCRPPRLPRPRPRPVNPPRP | -0.176 |
| RRIRARPPRLPRPRPRPPHFPRP | 1.41 |
| RRIRMRPPRLPRPRPRPRWWPRP | 1.11 |
| RRIRVRPPRLPRPRPRPTVFPRP | -0.0187 |
| RRIRFRPPRLPRPRPRPQKSPRP | -0.285 |
| RRIRLRPPRLPRPRPRPAVVPRP | 0.028 |
| RRIRPRPPRLPRPRPRPYVRPRP | -0.61 |
| RRIRCRPPRLPRPRPRPSLQPRP | -0.455 |
| RRIRERPPRLPRPRPRPFHTPRP | -0.0574 |
| RRIRCRPPRLPRPRPRPLVCPRP | -0.0544 |
| RRIRIRPPRLPRPRPRPKPPPRP | 0.269 |
| RRIRTRPPRLPRPRPRPVCDPRP | 0.0701 |
| RRIRERPPRLPRPRPRPARHPRP | -0.00285 |
| RRIRLRPPRLPRPRPRPSSNPRP | -0.211 |
| RRIRSRPPRLPRPRPRPSHDPRP | -0.308 |
| RRIRLRPPRLPRPRPRPRVNPRP | -0.155 |
| RRIRRRPPRLPRPRPRPMHWPRP | 0.148 |
| RRIRRRPPRLPRPRPRPDNLPRP | 0.000421 |
| RRIRSRPPRLPRPRPRPHKVPRP | -0.259 |
| RRIRFRPPRLPRPRPRPRVSPRP | -0.102 |
| RRIRARPPRLPRPRPRPMSSPRP | 0.0476 |
| RRIRIRPPRLPRPRPRPMWGPRP | -0.196 |
| RRIRIRPPRLPRPRPRPYRRPRP | -0.648 |
| RRIRNRPPRLPRPRPRPKARPRP | -0.00166 |

| Sequence | shrunken log2 fold change |
| --- | --- |
| RRIRFRPPRLPRPRPRPQMKPRP | -0.41 |
| RRIRMRPPRLPRPRPRPKINPRP | -0.194 |
| RRIRTRPPRLPRPRPRPPDDPRP | 0.408 |
| RRIRDRPPRLPRPRPRPAPRPRP | 1.07 |
| RRIRLRPPRLPRPRPRPVCHPRP | -0.274 |
| RRIRARPPRLPRPRPRPFNTPRP | -0.189 |
| RRIRMRPPRLPRPRPRPALEPRP | 0.347 |
| RRIRRRPPRLPRPRPRPLDPPRP | 0.5 |
| RRIRHRPPRLPRPRPRPICRPRP | 0.0125 |
| RRIRLRPPRLPRPRPRPFWAPRP | 0.0214 |
| RRIRYRPPRLPRPRPRPWVPPRP | -0.0218 |
| RRIRPRPPRLPRPRPRPPINPRP | -0.158 |
| RRIRRRPPRLPRPRPRPEINPRP | -0.0385 |
| RRIRKRPPRLPRPRPRPWRHPRP | 0.094 |
| RRIRYRPPRLPRPRPRPEWTPRP | -0.247 |
| RRIRERPPRLPRPRPRPLAEPRP | 0.17 |
| RRIRERPPRLPRPRPRPEWIPRP | 0.064 |
| RRIRCRPPRLPRPRPRPWWMPRP | -0.0465 |
| RRIRYRPPRLPRPRPRPWDGPRP | -0.196 |
| RRIRERPPRLPRPRPRPSLWPRP | -0.151 |
| RRIRLRPPRLPRPRPRPCCTPRP | -0.0665 |
| RRIRERPPRLPRPRPRPCKRPRP | -0.294 |
| RRIRNRPPRLPRPRPRPMCMPRP | -0.106 |
| RRIRCRPPRLPRPRPRPSHHPRP | -0.603 |
| RRIRPRPPRLPRPRPRPVRRPRP | 0.418 |
